Measured values as given in the supplement of paper PMC12042874.
± gives the uncertainty stated by the source.

Assay: amyloid nucleation score (Sup35N fusion, yeast selection) (log enrichment); library NNK2; higher = more nucleation; inactive = no reads after selection
Outline: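 Output and input plasmid inserts were sequenced by Illumina after psi-negative yeast carrying Sup35N fused to peptides of 20 random codons had been induced 24 hours with 100 μM copper sulfate and grown 7 days at 30°C on medium lacking adenine and uracil. The nucleation score is the DiMSum log enrichment of output over input reads, centred on the mode score of non-aggregating sequences. Sequences with under 100 input reads were excluded.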

Substance	amyloid nucleation score
YEVREFSCHGINIKMEGIYC	1.48 ± 0.2
TCGYGLSWLSGSPSMIMWMW	0.009 ± 0.63
SRLISFLRSRQDDSQISLGW	-0.445 ± 0.49
TGCTFCKSMCLYGETSRKDN	0.132 ± 0.36
GAIRFK	0.223 ± 0.54
ARMITWGRNMILTPSPMRHK	-0.783 ± 1
SFPMLVISVS	4.7 ± 0.068
LHFSGFTKFRFIMVFGKKVC	-1.24 ± 0.49
AVLFNDTWGGFAPNWYLLLS	0.474 ± 0.38
MFLILMCNCSYVGILRPNST	6.672 ± 0.03
VSTWTYSHRAPRG	1.52 ± 0.26
IFSEGSTSSGSFGTKL	-1.6 ± 0.61
DLLVCC	1.28 ± 0.26
GLTGRPQRLIVWAYDLERLW	-0.09 ± 0.63
VMRIVMIDMKSESWSTERVS	0.611 ± 0.57
FTTMESDGMVFGL	3.75 ± 0.061
YMNQERVQTVFDSRICFRLH	-0.246 ± 0.35
SICASWNRINGIVTKLGWSE	-0.739 ± 0.32
PDFKNLSYWLSVDTMPSRWV	inactive
VPLRA	0.002 ± 0.55
IVSVYATAIGGVRFRECCIG	-0.09 ± 0.34
VVCYLRIYRRILYSGIKKWP	3.71 ± 0.073

Substance	amyloid nucleation score
TLFRKL	-0.543 ± 0.44
GYLILFTCNPLVFLVNRSGR	inactive
APRWWFYVDSY	0.237 ± 1
NTQDFGLCYIFFLQDRCN	-0.117 ± 0.49
RANKYVASRFVITFKVACFE	0.092 ± 1.1
DVHTVCASSKHHLRVVKAVT	0.494 ± 0.8
CSCEVALIIK	inactive
WDSQESITKS	-0.172 ± 0.54
SDTFS	0.68 ± 0.56
IDLMKLCFLLYSIGFFLPTH	inactive
RFRCTTSSLRGLFWPNTWKK	-0.301 ± 0.76
ARTLWY	-0.522 ± 0.28
YRWVRVSNRGCRTNMIKYMS	-1.66 ± 0.36
CLRFC	-0.453 ± 1.1
RGVKDRKRQVQFEKSSRSMA	0.361 ± 0.21
YSMSLASSRCR	inactive
YHWNVGIDGYLNSTMLLQAY	inactive
IIRTTSNRPTPLRCSPNLSM	-0.779 ± 0.33
DRSFVETREVACVVMYTSVF	-0.395 ± 0.61
EWLTLTDIFT	-0.619 ± 1
PGHLLRILVFSNNYAYQRDI	-0.647 ± 0.42
VRFVINSWLTCVYERNIKLL	-0.058 ± 0.22

Substance	amyloid nucleation score
YSSVSR	-1.05 ± 0.55
YFKCGGHAFCVSNYARLNDF	-0.573 ± 0.42
VLRIRLQAGEGKRCE	4.878 ± 0.044
FLLRIWTACVLFACKYRGIR	inactive
ITGKTGVCSNNYTLKILGIV	-0.826 ± 0.33
WVLMYDICGS	inactive
VMLRYNSYGNYLLRWHTDDA	-0.843 ± 0.44
DAFYDS	-2.05 ± 0.75
YHCGFGAS	0.837 ± 0.44
VDVFGVCRRSVYVA	0.988 ± 0.4
DNVKVWSGFTRY	-0.148 ± 0.49
FDMEIFTYGGTSNNFGHCDD	inactive
RRMTCALYVIRWFSVHYFYL	-1.79 ± 0.75
CWGVVGSAAGWYSGTK	1.46 ± 0.21
GFNGRALKLERARDLVCGRM	0.386 ± 0.29
CMSRFGRCNFVHDTWMGFTR	2.93 ± 0.1
FSPIYRHGHKCML	-0.672 ± 0.54
SLDQFSLSPKAVQRVACVAQ	0.251 ± 0.54
SLSDELAERNSRCTRLTPWM	1.61 ± 0.23
LDLALSQH	1.54 ± 0.53
LVNSGKLVIPPAVSWWYNWF	-0.763 ± 0.37
NSKKWSQGIGTYSDRAFYVF	inactive

Substance	amyloid nucleation score
GGFDYCFIMYHRNELDSGLG	-0.646 ± 0.23
WFSVVILLNSTMEYYQYLV	-0.128 ± 0.45
EARSGVNGRARSMFLIGRYS	-0.262 ± 0.63
MDIFRYVCNCYKSSNKKVFG	-1.25 ± 0.78
SGDGVLVSFSKDSGFQSFGS	0.673 ± 0.2
RFYKSNGPRF	-1.28 ± 0.78
CKVSVDN	0.011 ± 0.36
WCYELIYV	-0.573 ± 0.79
SNRHSVRKAAWIWGRDFLRA	0.346 ± 0.38
FLNHYWLYFQP	5.353 ± 0.044
LYLSVPQYYFSCLFSMVEVQ	-1.07 ± 0.61
RNVGDLMSRGSYYSIPSGNL	-1.03 ± 0.41
KRKISDSSPRDRWVALLKKL	2.15 ± 0.15
YHYANDMFFN	-0.727 ± 0.56
KELYTSVSQGLCRYSISSCR	-0.786 ± 0.35
LMTSDAGSLAIVVVNCNFGT	7.942 ± 0.023
DYIFGYSTILFVMLCIHNFY	-1.35 ± 0.78
SGLLSFLTHSLFEFLSNKQW	-0.557 ± 1.1
CLQCQLIRRGLTKMNMGFAS	-0.023 ± 0.45
CKTTQDSDITCK	-0.747 ± 0.79
GICPWTRLALFCRSGNVYRG	1.34 ± 0.15
MSSNYWY	-0.916 ± 1.1
